Consider 3 molecules from patent publication US20250257338A1 (JCR PHARMACEUTICALS, published 2025).

Experiment [1] concerns the target T1, human TfR extracellular region with N-terminal histidine tag, hTfR-ECD (His tag) (human, UniProt P02786 87-760).
T1 construct: Loaded on the Ni-NTA biosensor in the BLI assay; 760 is the known length of human TfR, not a printed number; not shown: histidine tag at the N-terminus
As to the kind of experiment: BLI (Octet RED96), hTfR-ECD (His tag) on Ni-NTA biosensor, 1:1 model. Here is the method: In addition, hTfR was adjusted to a concentration of 25 ng/ml, using HBS-P+ (1% BSA) to obtain an hTfR-ECD (His tag) solution.
The sample solution for hTfR affinity measurement was added to a 96-well plate, black (Greiner Bio-One International GmbH) at 200 μL/well. The hTfR-ECD (His tag) solution was added to predetermined wells at 200 μL/well. HBS-P+ (1% BSA) was added to wells for baseline, dissociation, and washing at 200 μL/well. 10 mM Glycine-HCl (pH 1.7) was added to wells for regeneration at 200 μL/well. 0.5 mM NiCl₂ (1% BSA) solution was added to wells for activation at 200 μL/well. This plate and a biosensor (Biosensor/Ni-NTA, ForteBio) were placed at predetermined positions in the Octet RED96.
Note that the measurement was carried out at a temperature of 25 to 30° C.
(Biolayer interferometry detects binding as a change in optical thickness at a sensor tip.)

Experiment [2] addresses T2, human mannose-6-phosphate receptor (cation-independent) domain 9 recombinant protein with C-terminal … (human, UniProt P11717 1219-1364).
T2 construct: Loaded on the Ni-NTA biosensor; also called human M6PR; M6PR
As to the kind of experiment: BLI (Octet RED96), M6PR domain 9 (His tag) on Ni-NTA biosensor, 1:1 model. The protocol:
(§1) As the human M6PR, there was used a protein having the amino acid sequence represented by SEQ ID NO: 42, in which restriction enzyme-derived amino acids were added to both ends of the amino acid sequence corresponding to domain 9 from valine at the 1219th position to phenylalanine at the 1364th position from the N-terminus side in the amino acid sequence of a cation-independent mannose-6-phosphate receptor represented by SEQ ID NO: 41, and a histidine tag was further added to the C-terminus thereof.
(§2) In addition, human M6PR was adjusted to a concentration of […] with HBS-P+ to obtain an M6PR (His tag) solution.
(§3) The sample solution for M6PR affinity measurement was added to a 96-well plate, black (Greiner Bio-One International GmbH) at 200 μL/well. The M6PR (His tag) solution was added to predetermined wells at 200 μL/well. HBS-P+ was added to wells for baseline, dissociation, and washing at 200 μL/well. 10 mM Glycine-HCl (pH 1.7) was added to wells for regeneration at 200 μL/well. 0.5 mM NiCl₂ solution was added to wells for activation at 200 μL/well. This plate and a biosensor (Biosensor/Ni-NTA, ForteBio) were placed at predetermined positions in the Octet RED96.

The target of experiment [3] is T2, human mannose-6-phosphate receptor …. As to the kind of experiment: BLI (Octet RED96), M6PR (His tag) on Ni-NTA biosensor. The protocol:
as §1, §2, §3

T1 sequence (P02786 other isoform, or with tags, fused parts or gaps): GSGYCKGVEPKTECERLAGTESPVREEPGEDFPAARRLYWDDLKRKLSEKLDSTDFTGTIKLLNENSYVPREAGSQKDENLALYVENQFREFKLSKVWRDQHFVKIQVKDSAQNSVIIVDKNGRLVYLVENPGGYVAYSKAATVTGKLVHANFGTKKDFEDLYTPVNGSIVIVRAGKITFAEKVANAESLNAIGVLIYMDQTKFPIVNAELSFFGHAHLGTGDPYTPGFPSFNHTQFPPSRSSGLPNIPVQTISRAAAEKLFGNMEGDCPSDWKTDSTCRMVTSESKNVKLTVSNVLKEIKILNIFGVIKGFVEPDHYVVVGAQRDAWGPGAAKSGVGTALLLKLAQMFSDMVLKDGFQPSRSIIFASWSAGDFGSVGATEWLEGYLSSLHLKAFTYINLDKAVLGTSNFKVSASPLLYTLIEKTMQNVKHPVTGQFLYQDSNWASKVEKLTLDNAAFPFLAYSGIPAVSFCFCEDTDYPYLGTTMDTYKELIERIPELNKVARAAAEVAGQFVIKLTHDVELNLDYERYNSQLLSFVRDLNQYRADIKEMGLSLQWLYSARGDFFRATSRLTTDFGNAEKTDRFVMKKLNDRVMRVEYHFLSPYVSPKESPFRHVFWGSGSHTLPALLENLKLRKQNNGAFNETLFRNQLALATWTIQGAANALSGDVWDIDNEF
T2 sequence (P11717 other isoform, or with tags, fused parts or gaps limits assumed): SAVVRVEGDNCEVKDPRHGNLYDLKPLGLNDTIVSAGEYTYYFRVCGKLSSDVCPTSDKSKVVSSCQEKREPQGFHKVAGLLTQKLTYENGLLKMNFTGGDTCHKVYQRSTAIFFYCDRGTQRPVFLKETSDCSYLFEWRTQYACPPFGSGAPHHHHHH

B1: Fab-IDS (WT), fusion protein of wild-type hIDS and an anti-hTfR (Fab) antibody (Fab)
heavy: EVQLVQSGAEVKKPGESLKISCKGSGYSFMNYWLGWVRQMPGKGLEWMGDIYPGGDYPTYSEKFKVQVTISADKSISTAYLQLSSLKASDTAMYYCARSGNYDEVAYWGQGTLVTVSSASTKGPSVFPLAPSSKSTSGGTAALGCLVKDYFPEPVTVSWNSGALTSGVHTFPAVLQSSGLYSLSSVVTVPSSSLGTQTYICNVNHKPSNTKVDKKVEPKSCDKTHTGGGGSGGGGSGGGGSSETQANSTTDALNVLLIIVDDLRPSLGCYGDKLVRSPNIDQLASHSLLFQNAFAQQAVCAPSRVSFLTGRRPDTTRLYDFNSYWRVHAGNFSTIPQYFKENGYVTMSVGKVFHPGISSNHTDDSPYSWSFPPYHPSSEKYENTKTCRGPDGELHANLLCPVDVLDVPEGTLPDKQSTEQAIQLLEKMKTSASPFFLAVGYHKPHIPFRYPKEFQKLYPLENITLAPDPEVPDGLPPVAYNPWMDIRQREDVQALNISVPYGPIPVDFQRKIRQSYFASVSYLDTQVGRLLSALDDLQLANSTIIAFTSDHGWALGEHGEWAKYSNFDVATHVPLIFYVPGRTASLPEAGEKLFPYLDPFDSASQLMEPGRQSMDLVELVSLFPTLAGLAGLQVPPRCPVPSFHVELCREGKNLLKHFRFRDLEEDPYLPGNPRELIAYSQYPRPSDIPQWNSDKPSLKDIKIMGYSIRTIDYRYTVWVGFNPDEFLANFSDIHAGELYFVDSDPLQDHNMYNDSQGGDLFQLLMP
light: DIVMTQTPLSLSVTPGQPASISCRSSQSLVHSNGNTYLHWYLQKPGQSPQLLIYKVSNRFSGVPDRFSGSGSGTDFTLKISRVEAEDVGVYYCSQSTHVPWTFGQGTKVEIKRTVAAPSVFIFPPSDEQLKSGTASVVCLLNNFYPREAKVQWKVDNALQSGNSQESVTEQDSKDSTYSLSSTLTLSKADYEKHKVYACEVTHQGLSSPVTKSFNRGEC
modifications: N-linked sugar chains containing mannose-6-phosphate (M6P) on the asparagines at positions 221 and 255 of the hIDS portion (numbering of SEQ ID NO: 1)
notes: Humanized anti-hTfR Fab; Expressed in ExpiCHO cells
Turning to B1, in experiment [1], the dissociation constant Kd (commonly the constant that tells how readily two partners part at equilibrium) was 0.67 nM, the koff (usually the first-order rate constant of dissociation) came out at 0.000331 s⁻¹ and the kon (usually the rate constant with which the complex forms) was 494000 M⁻¹ s⁻¹. Besides, in experiment [2], the Kd stood at 2.32 nM, the koff was determined as 0.000586 s⁻¹ and the on-rate constant (kon) turned out to be 253000 M⁻¹ s⁻¹.

B2: Fab-IDS (m2), fusion protein of hIDS mutant muhIDS-2 (N221Q, N255Q) and an anti-hTfR (Fab) antibody (Fab)
heavy: EVQLVQSGAEVKKPGESLKISCKGSGYSFMNYWLGWVRQMPGKGLEWMGDIYPGGDYPTYSEKFKVQVTISADKSISTAYLQLSSLKASDTAMYYCARSGNYDEVAYWGQGTLVTVSSASTKGPSVFPLAPSSKSTSGGTAALGCLVKDYFPEPVTVSWNSGALTSGVHTFPAVLQSSGLYSLSSVVTVPSSSLGTQTYICNVNHKPSNTKVDKKVEPKSCDKTHTGGGGSGGGGSGGGGSSETQANSTTDALNVLLIIVDDLRPSLGCYGDKLVRSPNIDQLASHSLLFQNAFAQQAVCAPSRVSFLTGRRPDTTRLYDFNSYWRVHAGNFSTIPQYFKENGYVTMSVGKVFHPGISSNHTDDSPYSWSFPPYHPSSEKYENTKTCRGPDGELHANLLCPVDVLDVPEGTLPDKQSTEQAIQLLEKMKTSASPFFLAVGYHKPHIPFRYPKEFQKLYPLEQITLAPDPEVPDGLPPVAYNPWMDIRQREDVQALQISVPYGPIPVDFQRKIRQSYFASVSYLDTQVGRLLSALDDLQLANSTIIAFTSDHGWALGEHGEWAKYSNFDVATHVPLIFYVPGRTASLPEAGEKLFPYLDPFDSASQLMEPGRQSMDLVELVSLFPTLAGLAGLQVPPRCPVPSFHVELCREGKNLLKHFRFRDLEEDPYLPGNPRELIAYSQYPRPSDIPQWNSDKPSLKDIKIMGYSIRTIDYRYTVWVGFNPDEFLANFSDIHAGELYFVDSDPLQDHNMYNDSQGGDLFQLLMP
light: DIVMTQTPLSLSVTPGQPASISCRSSQSLVHSNGNTYLHWYLQKPGQSPQLLIYKVSNRFSGVPDRFSGSGSGTDFTLKISRVEAEDVGVYYCSQSTHVPWTFGQGTKVEIKRTVAAPSVFIFPPSDEQLKSGTASVVCLLNNFYPREAKVQWKVDNALQSGNSQESVTEQDSKDSTYSLSSTLTLSKADYEKHKVYACEVTHQGLSSPVTKSFNRGEC
B2: in experiment [3], the binding result is listed as “no binding”. In experiment [1], this molecule came in with a Kd of 0.661 nM, a koff of 0.00031 s⁻¹ and a kon of 469000 M⁻¹ s⁻¹.

B3: Fab-IDS (m1), fusion protein of hIDS mutant muhIDS-1 (T223A, S257A) and an anti-hTfR (Fab) antibody (Fab)
heavy: EVQLVQSGAEVKKPGESLKISCKGSGYSFMNYWLGWVRQMPGKGLEWMGDIYPGGDYPTYSEKFKVQVTISADKSISTAYLQLSSLKASDTAMYYCARSGNYDEVAYWGQGTLVTVSSASTKGPSVFPLAPSSKSTSGGTAALGCLVKDYFPEPVTVSWNSGALTSGVHTFPAVLQSSGLYSLSSVVTVPSSSLGTQTYICNVNHKPSNTKVDKKVEPKSCDKTHTGGGGSGGGGSGGGGSSETQANSTTDALNVLLIIVDDLRPSLGCYGDKLVRSPNIDQLASHSLLFQNAFAQQAVCAPSRVSFLTGRRPDTTRLYDFNSYWRVHAGNFSTIPQYFKENGYVTMSVGKVFHPGISSNHTDDSPYSWSFPPYHPSSEKYENTKTCRGPDGELHANLLCPVDVLDVPEGTLPDKQSTEQAIQLLEKMKTSASPFFLAVGYHKPHIPFRYPKEFQKLYPLENIALAPDPEVPDGLPPVAYNPWMDIRQREDVQALNIAVPYGPIPVDFQRKIRQSYFASVSYLDTQVGRLLSALDDLQLANSTIIAFTSDHGWALGEHGEWAKYSNFDVATHVPLIFYVPGRTASLPEAGEKLFPYLDPFDSASQLMEPGRQSMDLVELVSLFPTLAGLAGLQVPPRCPVPSFHVELCREGKNLLKHFRFRDLEEDPYLPGNPRELIAYSQYPRPSDIPQWNSDKPSLKDIKIMGYSIRTIDYRYTVWVGFNPDEFLANFSDIHAGELYFVDSDPLQDHNMYNDSQGGDLFQLLMP
light: DIVMTQTPLSLSVTPGQPASISCRSSQSLVHSNGNTYLHWYLQKPGQSPQLLIYKVSNRFSGVPDRFSGSGSGTDFTLKISRVEAEDVGVYYCSQSTHVPWTFGQGTKVEIKRTVAAPSVFIFPPSDEQLKSGTASVVCLLNNFYPREAKVQWKVDNALQSGNSQESVTEQDSKDSTYSLSSTLTLSKADYEKHKVYACEVTHQGLSSPVTKSFNRGEC
With B3, the binding result in experiment [3] is listed as “no binding”. In experiment [1], the Kd worked out at 0.678 nM, the dissociation rate constant (koff) was 0.000331 s⁻¹ and the kon amounted to 489000 M⁻¹ s⁻¹.
